B1: ATP-dependent RNA helicase SUPV3L1, mitochondrial (Homo sapiens), Q8IYB8 (parent)
chain: MSFSRALLWARLPAGRQAGHRAAICSALRPHFGPFPGVLGQVSVLATASSSASGGSKIPNTSLFVPLTVKPQGPSADGDVGAELTRPLDKNEVKKVLDKFYKRKEIQKLGADYGLDARLFHQAFISFRNYIMQSHSLDVDIHIVLNDICFGAAHADDLFPFFLRHAKQIFPVLDCKDDLRKISDLRIPPNWYPDARAMQRKIIFHSGPTNSGKTYHAIQKYFSAKSGVYCGPLKLLAHEIFEKSNAAGVPCDLVTGEERVTVQPNGKQASHVSCTVEMCSVTTPYEVAVIDEIQMIRDPARGWAWTRALLGLCAEEVHLCGEPAAIDLVMELMYTTGEEVEVRDYKRLTPISVLDHALESLDNLRPGDCIVCFSKNDIYSVSRQIEIRGLESAVIYGSLPPGTKLAQAKKFNDPNDPCKILVATDAIGMGLNLSIRRIIFYSLIKPSINEKGERELEPITTSQALQIAGRAGRFSSRFKEGEVTTMNHEDLSLLKEILKRPVDPIRAAGLHPTAEQIEMFAYHLPDATLSNLIDIFVDFSQVDGQYFVCNMDDFKFSAELIQHIPLSLRVRYVFCTAPINKKQPFVCSSLLQFARQYSRNEPLTFAWLRRYIKWPLLPPKNIKDLMDLEAVHDVLDLYLWLSYRFMDMFPDASLIRDLQKELDGIIQDGVHNITKLIKMSETHKLLNLEGFPSGSQSRLSGTLKSQARRTRGTKALGSKATEPPSPDAGELSLASRLVQQGLLTPDMLKQLEKEWMTQQTEHNKEKTESGTHPKGTRRKKKEPDSD
partner: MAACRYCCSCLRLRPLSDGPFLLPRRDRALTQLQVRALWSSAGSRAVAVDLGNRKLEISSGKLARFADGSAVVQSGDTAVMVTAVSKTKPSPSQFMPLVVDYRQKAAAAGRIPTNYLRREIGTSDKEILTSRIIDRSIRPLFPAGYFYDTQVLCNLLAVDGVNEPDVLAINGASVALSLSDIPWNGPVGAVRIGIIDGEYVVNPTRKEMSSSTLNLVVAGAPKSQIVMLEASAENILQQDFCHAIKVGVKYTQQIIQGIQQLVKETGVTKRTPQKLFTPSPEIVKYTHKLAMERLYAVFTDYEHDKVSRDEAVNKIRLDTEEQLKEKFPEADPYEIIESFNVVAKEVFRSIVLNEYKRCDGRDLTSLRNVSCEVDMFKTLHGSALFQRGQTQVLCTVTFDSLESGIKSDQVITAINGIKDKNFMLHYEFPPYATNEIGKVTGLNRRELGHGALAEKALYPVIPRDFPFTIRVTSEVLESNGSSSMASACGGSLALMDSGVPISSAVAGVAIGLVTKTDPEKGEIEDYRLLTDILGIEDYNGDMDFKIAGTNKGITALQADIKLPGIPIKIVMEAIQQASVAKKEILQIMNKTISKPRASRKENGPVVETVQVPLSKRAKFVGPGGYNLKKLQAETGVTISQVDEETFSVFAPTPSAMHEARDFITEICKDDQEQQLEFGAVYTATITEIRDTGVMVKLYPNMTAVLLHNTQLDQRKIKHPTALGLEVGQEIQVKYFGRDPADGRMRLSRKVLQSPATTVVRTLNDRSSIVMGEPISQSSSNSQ

Variants of: B1
Conditions: with pnpt1_human PNPT1, Q8TCS8

Row | Variant | effect of a mutation on the interaction
1 | K213A | with no effect
